According to PMC10796322, “Molecular switching in transcription through splicing and proline-isomerization regulates stress responses in plants” (Nature Communications, 2024):
Residue numbers refer to the chain shown, from its start. Names may count otherwise. “And” between values parts separate entries of the source, which are not always exact repeats. Identical values can stand only once.

B1: DREB2A_(195-276) (domain or fragment, Arabidopsis thaliana, UniProt O82132 195-276, looked up)
chain: VKADKHWLSEFEHNYWSDILKEKEKQKEQGIVETCQQQQQDSLSVADYGWPNDVDQSHLDSSDMFDVDELLRDLNGDDVFAG
notes: source: E. coli BL21 DE3, purified (glutathione Sepharose, TEV cleavage, SEC); not shown: GST, N-terminal, cleaved
B2: DREB2A_(151-335) (domain or fragment, Arabidopsis thaliana, UniProt O82132 151-335, looked up)
chain: VCTVETPGCVHVKTEDPDCESKPFSGGVEPMYCLENGAEEMKRGVKADKHWLSEFEHNYWSDILKEKEKQKEQGIVETCQQQQQDSLSVADYGWPNDVDQSHLDSSDMFDVDELLRDLNGDDVFAGLNQDRYPGNSVANGSYRPESQQSGFDPLQSLNYGIPPFQLEGKDGNGFFDDLSYLDLEN
notes: also called C-terminal intrinsically disordered region (IDR) of DREB2A; source: E. coli BL21 DE3, purified (glutathione Sepharose, TEV cleavage, SEC); not shown: GST, N-terminal, cleaved
B3: DREB2A_(234-276,P245A) (domain or fragment, Arabidopsis thaliana, UniProt O82132 234-276, looked up)
chain: QDSLSVADYGWANDVDQSHLDSSDMFDVDELLRDLNGDDVFAG
notes: Isotope-labelled in the CEST experiments; also called ABS-RIM_(P245A); DREB2A_(P245A); source: E. coli BL21 DE3, purified (glutathione Sepharose, TEV cleavage, SEC); not shown: GST, N-terminal, cleaved
B4: DREB2A_(234-256) (ABS) (domain or fragment, Arabidopsis thaliana, UniProt O82132 234-256, looked up)
chain: QDSLSVADYGWPNDVDQSHLDSS
notes: also called monovalent ABS fragment; source: E. coli BL21 DE3, purified (glutathione Sepharose, TEV cleavage, SEC); not shown: GST, N-terminal, cleaved
B5: DREB2A_(234-335) (domain or fragment, Arabidopsis thaliana, UniProt O82132 234-335, looked up)
chain: QDSLSVADYGWPNDVDQSHLDSSDMFDVDELLRDLNGDDVFAGLNQDRYPGNSVANGSYRPESQQSGFDPLQSLNYGIPPFQLEGKDGNGFFDDLSYLDLEN
notes: DREB2A, Arabidopsis thaliana, AT5G05410, residues 234-335; source: E. coli BL21 DE3, purified (glutathione Sepharose, TEV cleavage, SEC); not shown: GST, N-terminal, cleaved
B6: DREB2A_(195-276) E263P (domain or fragment, Arabidopsis thaliana, UniProt O82132 195-276, looked up)
chain: B1 chain with E69P
notes: also called helix-disrupting DREB2A E263P variant; source: E. coli BL21 DE3, purified (glutathione Sepharose, TEV cleavage, SEC); not shown: GST, N-terminal, cleaved
B7: DREB2A_(195-276) F259A (domain or fragment, Arabidopsis thaliana, UniProt O82132 195-276, looked up)
chain: B1 chain with F65A
notes: as for B1
B8: DREB2A_(195-276) L237A (domain or fragment, Arabidopsis thaliana, UniProt O82132 195-276, looked up)
chain: B1 chain with L43A
notes: as for B1
B9: DREB2A_(195-276) F274A (domain or fragment, Arabidopsis thaliana, UniProt O82132 195-276, looked up)
chain: B1 chain with F80A
notes: as for B1
B10: DREB2A_(195-276) W244A (domain or fragment, Arabidopsis thaliana, UniProt O82132 195-276, looked up)
chain: B1 chain with W50A
notes: as for B1
B11: DREB2A_(195-276) V239A (domain or fragment, Arabidopsis thaliana, UniProt O82132 195-276, looked up)
chain: B1 chain with V45A
notes: as for B1
B12: DREB2A_(195-276) D241A (domain or fragment, Arabidopsis thaliana, UniProt O82132 195-276, looked up)
chain: B1 chain with D47A
notes: as for B1
B13: DREB2A_(195-335,Δ244-276) (domain or fragment, Arabidopsis thaliana, UniProt O82132 195-335, looked up)
chain: VKADKHWLSEFEHNYWSDILKEKEKQKEQGIVETCQQQQQDSLSVADYGLNQDRYPGNSVANGSYRPESQQSGFDPLQSLNYGIPPFQLEGKDGNGFFDDLSYLDLEN
notes: also called splice variant fragment; source: E. coli BL21 DE3, purified (glutathione Sepharose, TEV cleavage, SEC); not shown: GST, N-terminal, cleaved
B14: DREB2A_(234-272) (domain or fragment, Arabidopsis thaliana, UniProt O82132 234-272, looked up)
chain: QDSLSVADYGWPNDVDQSHLDSSDMFDVDELLRDLNGDD
notes: DREB2A, Arabidopsis thaliana, AT5G05410, residues 234-272; source: E. coli BL21 DE3, purified (glutathione Sepharose, TEV cleavage, SEC); not shown: GST, N-terminal, cleaved

The molecules below were run against T1, Med25-ACID (Arabidopsis thaliana, UniProt Q7XYY2) (assay: not given). Conditions: SD.
T1 construct: Med25-ACID532-680 (AT1G25540), expressed in E. coli with N-terminal GST tag removed by TEV protease
Protocol: All protein fragments were produced with an N-terminal Glutathione-S-transferase (GST) tag which was removed using Tobacco Etch Virus (TEV) protease and expressed from E.coli BL21 DE3 cells. DREB2A (AT5G05410) variants were expressed at 37 °C for three hours. The DREB2A splice variant (AT5G05410.2) was based on GenBank ID CD530293[21]. Due to stability and aggregation considerations, Med25-ACID (AT1G25540) was expressed with additional N-terminal residues. Expression of Med25-ACID532-680 was induced at high OD (0.8-1.0) and cultured overnight at 18 °C. Cells were resuspended in 20 mM Tris-HCl pH 8.0, 100 mM NaCl lysis buffer and sonicated. The lysate was incubated with glutathione Sepharose for one hour and washed using the lysis buffer. Aliquots of 5 mL resin were resuspended in 20 mL of lysis buffer with 5 mM dithiothreitol (DTT) and 1 mM EDTA and the protein was cleaved overnight at 4 °C using TEV protease. For DREB2A, cleaved protein was freeze-dried and buffer-changed to experimental buffer using size exclusion chromatography. Med25-ACID was further purified using cation exchange (Source 15 S) at pH 8.5 and the buffer was changed using size exclusion chromatography (Superdex S75 10/300 GL). Isotope-labeled proteins were produced by growing the initial culture in lysogenic broth and transferring to half volume M9 minimal media 30 min before induction.
ITC was performed on either a MicroCal ITC200 or a Malvern Pananalytical PEAQ-ITC. All ITC experiments were performed using a 50 mM HEPES pH 7.4, 100 mM NaCl and 0.5 mM tris(2-carboxyethyl)phosphine (TCEP) buffer. All experiments were performed using a ~ 1:10 cell to syringe protein concentration ratio. For high-affinity DREB2A fragments, the cell concentration was around 15 µM, while lower-affinity interaction experiments used higher concentrations. Samples were degassed by centrifuging at 20,000 x g for 20 minutes at experimental temperature. For three DREB2A fragments, experiments were performed over a range of temperatures to determine the ΔCp. Reported thermodynamic parameters are given at 25 °C. Data were analyzed using Origin and inhouse scripts using the one-set-of-sites model as documented by MicroCal and Origin. Dilution heats were fitted using an offset parameter. Most experiments were performed using a 0.5 µl initial injection, which was discarded in the analysis, followed by 18 injections of 2.0 µl.

T1 sequence (Q7XYY2 532-680): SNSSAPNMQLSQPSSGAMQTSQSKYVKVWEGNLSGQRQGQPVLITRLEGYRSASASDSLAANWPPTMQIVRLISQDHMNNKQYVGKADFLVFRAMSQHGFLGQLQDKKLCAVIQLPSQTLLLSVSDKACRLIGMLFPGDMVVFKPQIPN

Molecule | Kd [nM]
DREB2A234-335 [234–335] | 440 ± 60

Each molecule was assayed against T2, Med25-ACID R568A (Arabidopsis thaliana, UniProt Q7XYY2 532-680, R568A) (assay: ITC). Conditions: not given.
T2 sequence: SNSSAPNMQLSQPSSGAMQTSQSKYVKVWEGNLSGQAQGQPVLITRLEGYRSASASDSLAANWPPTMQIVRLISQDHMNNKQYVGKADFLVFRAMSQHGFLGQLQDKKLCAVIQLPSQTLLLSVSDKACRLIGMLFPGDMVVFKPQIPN

Molecule | Kd
B1 | 3200 nM and 2900 nM

Each molecule was assayed against T3, Med25-ACID_(532-680), activator interaction domain (ACID) of mediator complex subunit 25 (Arabidopsis thaliana, UniProt Q7XYY2 532-680) (assay: ITC; 25 °C; 50 mM HEPES pH 7.4, 100 mM NaCl, 0.5 mM TCEP; ~1:10 cell to syringe concentration ratio, cell around 15 µM for high-affinity fragments; one-set-of-sites model; which protein was in the cell is not stated). Conditions: both partners purified.
T3 construct: 15N- or 13C,15N-labelled in the NMR titrations; unlabelled in ITC, CEST and stopped-flow; also called AtMed25-ACID; ACID domain; source: E. coli BL21 DE3, purified (glutathione Sepharose, TEV cleavage, cation exchange, SEC); not shown: GST, N-terminal, cleaved
T3 sequence (looked up): T2 sequence with A37R

Molecule | dH [kcal/mol] | stoichiometry N | Kd [nM]
B2 | -12.5 | 1.1 | 
B3 | -10.4 ± 0.191 | 1.26 ± 0.01 | 780 ± 60
B4 | -12.9 | 0.86 | 6000
B5 | -13.9 | 1 | 440
B1 | -12.2 | 1.09 | 450
B6 | -14.6 ± 0.191 | 1 ± 0.06 | 580 ± 40
B7 | -14.1 ± 0.215 | 1.2 ± 0.1 | 550 ± 50
B8 | -5.47 ± 0.167 | 1.03 ± 0.06 | 2400 ± 300
B9 | -14.8 ± 0.478 | 0.86 ± 0.02 | 660 ± 90
B10 | -11.2 ± 0.239 | 1 ± 0.1 | 1900 ± 200
B11 | -10 ± 0.239 | 0.95 ± 0.01 | 2000 ± 200
B12 | -8.84 ± 1.67 | 1.07 ± 0.06 | 2000 ± 700
B13 | -14.1 | 1.02 | 5400
B14 | -10.3 | 0.97 | 1800
